Reference: US20230407373A1 (priority 2020, published 2023)

B1: RRBP1: host protein, UniProt Q9P2E9 (protein, UniProt Q9P2E9 1-1410, looked up)
Ribosome-binding protein 1: MDIYDTQTLGVVVFGGFMVVSAIGIFLVSTFSMKETSYEEALANQRKEMAKTHHQKVEKKKKEKTVEKKGKTKKKEEKPNGKIPDHDPAPNVTVLLREPVRAPAVAVAPTPVQPPIIVAPVATVPAMPQEKLASSPKDKKKKEKKVAKVEPAVSSVVNSIQVLTSKAAILETAPKEVPMVVVPPVGAKGNTPATGTTQGKKAEGTQNQSKKAEGAPNQGRKAEGTPNQGKKTEGTPNQGKKAEGTPNQGKKAEGTPNQGKKAEGAQNQGKKVDTTPNQGKKVEGAPTQGRKAEGAQNQAKKVEGAQNQGKKAEGAQNQGKKGEGAQNQGKKAEGAQNQGKKAEGAQNQGKKAEGAQNQGKKAEGAQNQGKKAEGAQNQGKKAEGAQNQGKKVEGAQNQGKKAEGAQNQGKKAEGAQNQGKKAEGAQNQGKKAEGAQNQGKKAEGAQNQGKKAEGAQNQGKKAEGAQNQGKKVEGAQNQGKKAEGAQNQGKKAEGAQNQGKKAEGAQNQGQKGEGAQNQGKKTEGAQGKKAERSPNQGKKGEGAPIQGKKADSVANQGTKVEGITNQGKKAEGSPSEGKKAEGSPNQGKKADAAANQGKKTESASVQGRNTDVAQSPEAPKQEAPAKKKSGSKKKGEPGPPDADGPLYLPYKTLVSTVGSMVFNEGEAQRLIEILSEKAGIIQDTWHKATQKGDPVAILKRQLEEKEKLLATEQEDAAVAKSKLRELNKEMAAEKAKAAAGEAKVKKQLVAREQEITAVQARMQASYREHVKEVQQLQGKIRTLQEQLENGPNTQLARLQQENSILRDALNQATSQVESKQNAELAKLRQELSKVSKELVEKSEAVRQDEQQRKALEAKAAAFEKQVLQLQASHRESEEALQKRLDEVSRELCHTQSSHASLRADAEKAQEQQQQMAELHSKLQSSEAEVRSKCEELSGLHGQLQEARAENSQLTERIRSIEALLEAGQARDAQDVQASQAEADQQQTRLKELESQVSGLEKEAIELREAVEQQKVKNNDLREKNWKAMEALATAEQACKEKLLSLTQAKEESEKQLCLIEAQTMEALLALLPELSVLAQQNYTEWLQDLKEKGPTLLKHPPAPAEPSSDLASKLREAEETQSTLQAECDQYRSILAETEGMLRDLQKSVEEEEQVWRAKVGAAEEELQKSRVTVKHLEEIVEKLKGELESSDQVREHTSHLEAELEKHMAAASAECQNYAKEVAGLRQLLLESQSQLDAAKSEAQKQSDELALVRQQLSEMKSHVEDGDIAGAPASSPEAPPAEQDPVQLKTQLEWTEAILEDEQTQRQKLTAEFEEAQTSACRLQEELEKLRTAGPLESSETEEASQLKERLEKEKKLTSDLGRAATRLQELLKTTQEQLAREKDTVKKLQEQLEKAEDGSSSKEGTSV
B2: APOBEC3F (protein, UniProt Q8IUX4 1-373, looked up)
DNA dC->dU-editing enzyme …: MKPHFRNTVERMYRDTFSYNFYNRPILSRRNTVWLCYEVKTKGPSRPRLDAKIFRGQVYSQPEHHAEMCFLSWFCGNQLPAYKCFQITWFVSWTPCPDCVAKLAEFLAEHPNVTLTISAARLYYYWERDYRRALCRLSQAGARVKIMDDEEFAYCWENFVYSEGQPFMPWYKFDDNYAFLHRTLKEILRNPMEAMYPHIFYFHFKNLRKAYGRNESWLCFTMEVVKHHSPVSWKRGVFRNQVDPETHCHAERCFLSWFCDDILSPNTNYEVTWYTSWSPCPECAGEVAEFLARHSNVNLTIFTARLYYFWDTDYQEGLRSLSQEGASVEIMGYKDFKYCWENFVYNDDEPFKPWKGLKYNFLFLDSKLQEILE
B3: POP1: host protein, UniProt Q99575 (protein, UniProt Q99575 1-1024, looked up)
Ribonucleases P/MRP protein …: MSNAKERKHAKKMRNQPTNVTLSSGFVADRGVKHHSGGEKPFQAQKQEPHPGTSRQRQTRVNPHSLPDPEVNEQSSSKGMFRKKGGWKAGPEGTSQEIPKYITASTFAQARAAEISAMLKAVTQKSSNSLVFQTLPRHMRRRAMSHNVKRLPRRLQEIAQKEAEKAVHQKKEHSKNKCHKARRCHMNRTLEFNRRQKKNIWLETHIWHAKRFHMVKKWGYCLGERPTVKSHRACYRAMTNRCLLQDLSYYCCLELKGKEEEILKALSGMCNIDTGLTFAAVHCLSGKRQGSLVLYRVNKYPREMLGPVTFIWKSQRTPGDPSESRQLWIWLHPTLKQDILEEIKAACQCVEPIKSAVCIADPLPTPSQEKSQTELPDEKIGKKRKRKDDGENAKPIKKIIGDGTRDPCLPYSWISPTTGIIISDLTMEMNRFRLIGPLSHSILTEAIKAASVHTVGEDTEETPHRWWIETCKKPDSVSLHCRQEAIFELLGGITSPAEIPAGTILGLTVGDPRINLPQKKSKALPNPEKCQDNEKVRQLLLEGVPVECTHSFIWNQDICKSVTENKISDQDLNRMRSELLVPGSQLILGPHESKIPILLIQQPGKVTGEDRLGWGSGWDVLLPKGWGMAFWIPFIYRGVRVGGLKESAVHSQYKRSPNVPGDFPDCPAGMLFAEEQAKNLLEKYKRRPPAKRPNYVKLGTLAPFCCPWEQLTQDWESRVQAYEEPSVASSPNGKESDLRRSEVPCAPMPKKTHQPSDEVGTSIEHPREAEEVMDAGCQESAGPERITDQEASENHVAATGSHLCVLRSRKLLKQLSAWCGPSSEDSRGGRRAPGRGQQGLTREACLSILGHFPRALVWVSLSLLSKGSPEPHTMICVPAKEDFLQLHEDWHYCGPQESKHSDPFRSKILKQKEKKKREKRQKPGRASSDGPAGEEPVAGQEALTLGLWSGPLPRVTLHCSRTLLGFVTQGDFSMAVGCGEALGFVSLTGLLDMLSSQPAAQRGLVLLRPPASLQYRFARIAIEV
B4: ESRP2 (protein, UniProt Q9H6T0 1-727, looked up)
Epithelial splicing …: MTPPPPPPPPPGPDPAADPAADPCPWPGSLVVLFGATAGALGRDLGSDETDLILLVWQVVEPRSRQVGTLHKSLVRAEAAALSTQCREASGLSADSLARAEPLDKVLQQFSQLVNGDVALLGGGPYMLCTDGQQLLRQVLHPEASRKNLVLPDMFFSFYDLRREFHMQHPSTCPARDLTVATMAQGLGLETDATEDDFGVWEVKTMVAVILHLLKEPSSQLFSKPEVIKQKYETGPCSDSTVPCPYSSKADVVDSETVVRARGLPWQSSDQDVARFFKGLNVARGGVALCLNAQGRRNGEALIRFVDSEQRDLALQRHKHHMGVRYIEVYKATGEEFVKIAGGTSLEVARFLSREDQVILRLRGLPFSAGPTDVLGFLGPECPVTGGTEGLLFVRHPDGRPTGDAFALFACEELAQAALRRHKGMLGKRYIELFRSTAAEVQQVLNRYASGPLLPTLTAPLLPIPFPLAPGTGRDCVRLRGLPYTATIEDILSFLGEAAADIRPHGVHMVLNQQGRPSGDAFIQMTSAERALAAAQRCHKKVMKERYVEVVPCSTEEMSRVLMGGTLGRSGMSPPPCKLPCLSPPTYTTFQATPTLIPTETAALYPSSALLPAARVPAAPTPVAYYPGPATQLYLNYTAYYPSPPVSPTTVGYLTTPTAALASAPTSVLSQSGALVRMQGVPYTAGMKDLLSVFQAYQLPADDYTSLMPVGDPPRTVLQAPKEWVCL
B5: RBM4 (protein, UniProt Q9BWF3 1-364, looked up)
RNA-binding protein 4: MVKLFIGNLPREATEQEIRSLFEQYGKVLECDIIKNYGFVHIEDKTAAEDAIRNLHHYKLHGVNINVEASKNKSKTSTKLHVGNISPTCTNKELRAKFEEYGPVIECDIVKDYAFVHMERAEDAVEAIRGLDNTEFQGKRMHVQLSTSRLRTAPGMGDQSGCYRCGKEGHWSKECPIDRSGRVADLTEQYNEQYGAVRTPYTMSYGDSLYYNNAYGALDAYYKRCRAARSYEAVAAAAASVYNYAEQTLSQLPQVQNTAMASHLTSTSLDPYDRHLLPTSGAAATAAAAAAAAAAVTAASTSYYGRDRSPLRRATAPVPTVGEGYGYGHESELSQASAAARNSLYDMARYEREQYADRARYSAF
B6: LARP7: host protein, UniProt Q4G0J3 (protein, UniProt Q4G0J3 1-582, looked up)
La-related protein 7: METESGNQEKVMEEESTEKKKEVEKKKRSRVKQVLADIAKQVDFWFGDANLHKDRFLREQIEKSRDGYVDISLLVSFNKMKKLTTDGKLIARALRSSAVVELDLEGTRIRRKKPLGERPKDEDERTVYVELLPKNVNHSWIERVFGKCGNVVYISIPHYKSTGDPKGFAFVEFETKEQAAKAIEFLNNPPEEAPRKPGIFPKTVKNKPIPALRVVEEKKKKKKKKGRMKKEDNIQAKEENMDTSNTSISKMKRSRPTSEGSDIESTEPQKQCSKKKKKRDRVEASSLPEVRTGKRKRSSSEDAESLAPRSKVKKIIQKDIIKEASEASKENRDIEISTEEEKDTGDLKDSSLLKTKRKHKKKHKERHKMGEEVIPLRVLSKSEWMDLKKEYLALQKASMASLKKTISQIKSESEMETDSGVPQNTGMKNEKTANREECRTQEKVNATGPQFVSGVIVKIISTEPLPGRKQVRDTLAAISEVLYVDLLEGDTECHARFKTPEDAQAVINAYTEINKKHCWKLEILSGDHEQRYWQKILVDRQAKLNQPREKKRGTEKLITKAEKIRLAKTQQASKHIRFSEYD

test system: gRNA of HCoV-OC43; type: binding; details: type g_36_m; HCoV-OC43-infected HCT-8 cells, 36 hpi, Probe I

Row | Molecule | target (spectral count)
1 | B1 | 22

same assay, conditions: type g_36_m; uninfected-probe control, 36 hpi, Probe I

Row | Molecule | background (spectral count)
2 | B1 | 1

same assay, conditions: type n_48_v: 48 hours post-infection, infected cells, OC43 Probe I; unweighted spectral count

Row | Molecule | target (spectral count, OC43 Probe I RNP capture)
3 | B1 | 17
4 | B2 | 6
5 | B3 | 6
6 | B4 | 6
7 | B5 | 6
8 | B6 | 6

same assay, conditions: type n_48_v: 48 hours post-infection, no-probe control on infected cells

Row | Molecule | background (spectral count, no-probe control)
9 | B1 | 5
10 | B2 | 1
11 | B3 | 1
12 | B4 | 1
13 | B5 | 1
14 | B6 | 1

test system: HCoV-OC43 gRNA and sgRNA; type: binding; details: 24 hpi; type n_24_v; tested against no-probe control; FDR<10%

Row | Molecule | target (unweighted spectral count, OC43 Probe II capture)
15 | B1 | 10
16 | B4 | 5
17 | B5 | 4

same assay, conditions: 36 hpi; type n_36_v; tested against no-probe control; FDR<10%

Row | Molecule | target (unweighted spectral count, OC43 Probe II capture)
18 | B1 | 16
19 | B2 | 4
20 | B3 | 8
21 | B4 | 6
22 | B5 | 4
23 | B6 | 7

same assay, conditions: type n_48_v; 48 hpi; OC43 Probe II capture on infected cells

Row | Molecule | target (unweighted spectral count, OC43 Probe II)
24 | B1 | 32
25 | B2 | 6
26 | B3 | 7
27 | B4 | 8
28 | B6 | 9

same assay, conditions: type n_48_v; 48 hpi; no-probe control on infected cells

Row | Molecule | background (unweighted spectral count, no-probe control)
29 | B1 | 5
30 | B2 | 1
31 | B3 | 1
32 | B4 | 1
33 | B6 | 1

same assay, conditions: type s_36_m; HCoV-OC43-infected HCT-8 cells, 36 hpi, Probe II

Row | Molecule | target (spectral count)
34 | B1 | 16
35 | B3 | 8
36 | B6 | 7

same assay, conditions: type s_36_m; uninfected-probe control, 36 hpi, Probe II

Row | Molecule | background (spectral count)
37 | B1 | 1
38 | B3 | 1
39 | B6 | 1
